Legend:
C57Bl/6J mice [1] = experiment: Mouse Frailty Index in aged mice treated from 55 to 110 weeks of age; format: in vivo; settings: mice aged 110 weeks; 40 mg/kg IP every 3 weeks from age 55 weeks; vs isotype control IgG
Experimental: C57Bl/6J mice aged 46 weeks were obtained from the Jackson Laboratory, and randomised on a 1:1 basis to receive either X203 or an isotype control IgG antibody.
(§1) From age 55 weeks (human equivalent of ˜45 years old (i.e. middle age)) to age 110 weeks (human equivalent of ˜75 years old), mice were administered with 40 mg/kg of either X203 or isotype-matched control IgG via intra-peritoneal injection every 3 weeks.
(§2) At age 110 weeks, frailty was assessed using the Mouse Frailty Index described in Rizzo et al. Curr Protoc Mouse Biol. (2018) 8(2):e45, which is hereby incorporated by reference in its entirety. In this protocol, mice are individually observed and evaluated for the absence or presence and severity of 27 different characteristics each scored as 0, 0.5, or 1 based on level of severity. A frailty index score is calculated as the cumulative score of all measures. As a separate measurement of frailty, core body temperature was recorded, as core body temperature is known to decrease with increasing frailty in mice (Reynolds et al., Mechanisms of Ageing and Development (1985) 30(2):143-52). Data were analysed by 2-way ANOVA.
End-point frailty scoring was performed 2 days prior to sacrifice using the accepted frailty scoring system (Sukoff Rizzo et al. 2018, Current Protocols in Mouse Biology 8 (2): e45.)

C57Bl/6J mice [2] = experiment: Core body temperature of aged mice; format: in vivo, mouse; settings: mice aged 110 weeks; 40 mg/kg IP every 3 weeks from age 55 weeks; vs isotype control IgG
Experimental: as §1, §2

C57Bl/6J mice [3] = experiment: Analysis of organ fibrosis (hydroxyproline assay, Masson's trichrome); format: in vivo, mouse; settings: at 110 weeks; heart, lung, kidney, skeletal muscle; vs IgG control antibody
Experimental: C57Bl/6J mice are randomised to receive either X203 or IgG control antibody at a dose of 40m/kg via IP injection every 3 weeks from age 55 weeks to age 110 weeks.
At 110 weeks, global tissue collagen content is evaluated in the heart, lung, kidney and skeletal muscle tissues by hydroxyproline assay. Tissue sections from these tissues are also subjected to Masson's trichrome staining and analysed by light microscopy (blinded to treatment group).

AML12 cells = experiment: In vitro model of senescence induction, qRT-PCR at day 7; format: cell-based, mouse; settings: 2 ug/ml from day 2, H2O2 0.75 mM, vs isotype-matched control IgG
Experimental: Senescent hepatic mouse cells were generated from cells of the mouse hepatocyte cell line AML12 as described in Tripathi et al., Star Protocols (2020) 1:100064 (hereby incorporated by reference in its entirety).
Briefly, AML12 cells were grown to 50% confluency and senescence was induced by treating the cells with a sub-lethal concentration of H2O2 (0.75 mM) for 1 h, followed by 23 h recovery per day, for a total of 7 days (as described in Tripathi et al., Star Protocols (2020) 1:100064). From day 2 onwards, 2 ug/ml of X209/X203 or isotype-matched control IgG was added to the cultures during the 23h recovery period.
Total RNA was isolated at day 7, and levels of p21 (Cdkn1a), […], Il11 and Tgfb gene expression were evaluated by qRT-PCR. Briefly, total RNA was extracted from cell lysates using Trizol (Invitrogen) followed by RNeasy column (Qiagen) purification. cDNAs were synthesized with iScript™ cDNA synthesis kit (Bio-Rad) according to manufacturer's instructions. Gene expression analysis was performed with either TaqMan (Applied Biosystems) or fast SYBR green (Qiagen) using the StepOnePlus Real-Time PCT System (Applied Biosystems) over 40 cycles. Expression data for p21 (Cdkn1a), Il1b, Il11 and Tgfb were normalised to Gapdh expression, and fold change was calculated using the 2^−ΔΔCt method.

[4] = system: Primary human cardiac fibroblasts; experiment: IL11 or TGFβ1 stimulated fibroblasts with X203, X209 or IgG, western blot; format: cell-based; settings: IL11/TGFβ1 10 ng/ml, 24 hours; antibody 2 μg/ml
Experimental: FIG. 19. Western blot image showing the levels of p-ERK, ERK, p-P90RSK, P90RSK, p-LKB1, LKB1, p-AMPK, AMPK, p-mTOR, mTOR, p-p70S6K, p70S6K, p-S6RP, S6RP, SMA, and GAPDH in primary human cardiac fibroblasts that are unstimulated (BL) or stimulated for 24 hours with either IL11 or TGFβ1 in the presence of X203, X209, or IgG (11E10) isotype control. IL11/TGFβ1 (10 ng/ml), IgG/X203/X209 (2 μg/ml).
Primary human cardiac fibroblasts were stimulated with IL11 or TGFβ1, or unstimulated (BL).

C57Bl/6J mice [5] = experiment: Ageing pathways in tissues of old mice receiving X203, western blot and densitometry; format: in vivo, mouse; settings: 110-week old mice
Experimental: The same results are observed in the gastrocnemii (FIGS. 45 and 46), solei (FIGS. 47 and 48) and abdominal fat (FIGS. 49 and 50) of old mice treated with X203.
Male and female C57Bl/6J mice aged 46 weeks were purchased from the Jackson Laboratory. Mice were randomised on a 1:1 basis to receive either 40 mg/kg of X203 or an isotype control IgG antibody (11E10), every 3 weeks (IP), starting from 55 weeks of age. Mice were sacrificed at 110 weeks of age for blood and tissues collection. 12 weeks old male and female C57Bl/6J mice that were used as control were purchased from Invivos (Singapore).
Western blots were carried out on total protein extracts from primary human cardiac fibroblasts (HCFs), hepatic stellate cells (HSCs), hepatocytes, livers, gastrocnemii, solei, and abdominal fats. Cell or tissue lysates were homogenized in RIPA Lysis and Extraction Buffer (89901, Thermo Scientific) containing protease and phosphatase inhibitors (Roche). Protein lysates were separated by SDS-PAGE, transferred to PVDF membranes, blocked for 1 h with 3% BSA, and incubated overnight with either phospho-ACC (11818, CST), ACC (3676, CST), phospho-AMPK (2535, CST), AMPK (5832, CST), phospho-ERK1/2 (4370, CST), ERK1/2 (4695, CST), GAPDH (2118, CST), phospho-LKB1 S428 (3482, CST), phospho-LKB1 (S325), LKB1 (3047, CST), (phospho-mTOR (2971, CST), mTOR (2972, CST), p16 (ab232402, Abcam), p21 (64016, CST), phospho-p70S6K (9205, CST), p70S6K (2708, CST), phospho-S6 ribosomal protein (4858, CST), or S6 ribosomal protein (2217, CST). All primary antibodies are diluted 1:1000 in 1% BSA. Protein bands were visualized using the ECL detection system (Pierce) with anti-rabbit HRP (1:2000 in 3% BSA, 7074, CST).

[6] = compared with the liver results

B1: X203: mouse anti-mouse IL-11 IgG antagonist antibody; VH SEQ ID NO:22, VL SEQ ID NO:23 (antibody, V domains shown)
VH: EVQLQQSGPELVKPGASVKIPCKASGYTFTDYNMDWVKQSHGKSLEWIGDINPHNGGPIYNQKFTGKATLTVDKSSSTAYMELRSLTSEDTAVYYCARGELGHWYFDVWGTGTTVTVSS
VL: DIVLTQSPASLAVSLGQRATISCRASKSVSTSGYSYIHWYQQKPGQPPKLLIYLASNLDSGVPARFSGSGSGTDFTLNIHPVEEEDAATYYCQHSRDLPPTFGGGTKLEIK
For B1, the frailty index (C57Bl/6J mice [1]) was “significant reduction”, the body temperature (C57Bl/6J mice [2]) was “significantly higher” and the “fibrosis in the tissues analysed” value (C57Bl/6J mice [3]) was “less”. The “gene expression of Il11” value (AML12 cells) was “trended towards a reduced level”, the “gene expression of Tgfb” value (AML12 cells) was “significantly reduce” and the “level of phosphorylation of markers ERK, p90RSK, LKB1, mTOR, p70S6K and S6RP” value [4] was “significantly reduce”. The “ERK/LKB1/mTORC1 activity, AMPK activity, p16 and p21 expression in gastrocnemii” value (C57Bl/6J mice [5]; [6]) was “same results”, the “ERK/LKB1/mTORC1 activity, AMPK activity, p16 and p21 expression in solei” value (C57Bl/6J mice [5]; [6]) was “same results” and the “AMPK activity in livers” value (C57Bl/6J mice [5]; vs IgG control) was “more”. For the same molecule, the “ERK/LKB1/mTORC1 activity in livers” value (C57Bl/6J mice [5]; vs IgG control) was “less” and the “expression of key senescence markers (p16 and p21) in livers” value (C57Bl/6J mice [5]; vs IgG control) was “less”.
